Experimental findings from patent US10253089B2, “Matrix metalloproteinase cleavable protein polymers for cancer gene therapy” (The University of Utah Research Foundation, priority 2012, dated 2019) are described below.

The nature of data set [1]: 12 week subchronic toxicity study. The format is in vivo, CD-1 immunocompetent mice. How it is done:
(§1) Mice were anesthetized and maintained under anesthesia with 3% isofluorane in oxygen. After shaving and cleaning the injection site with 60% isopropanol, mice were subcutaneously injected in the right flank with 50 μl of solution using a 250 μl Hamilton syringe with a 26G needle. […] The injection site was gently clamped for 10 seconds to prevent leakage, after which mice were returned to their cages. For consistency, the day of viral injection was defined as day 0.
(§2) For treatment groups, a suspension of 1 mg GCV (Sigma Aldrich, St. Louis, Mo.) per ml of 0.9% physiological saline was prepared and sterilized through a 0.22 μm filter. Each day, animal weights were recorded, injection sites cleaned with 60% isopropanol, and mice injected i.p. with 1 mg/ml GCV suspension through a 26G needle sufficient for a total dose of 25 mg/kg body weight. Average dosing volume for these studies was approximately 0.6 ml. Mice were injected daily for the first four weeks of the 12 week recovery study, and for the entirety of the 1, 2, and 4 week studies.
The results for the 12 week subchronic toxicity study (FIG. 18) reveal many interesting points about SELP and its ability to improve the Ad.HSVtk/GCV toxicity profile. […]

The target in data set [2] is MMP-9 (Homo sapiens, UniProt P14780). In words: Hydrogel protein loss in the presence of MMP-9. The format is biochemical. The conditions noted are these: 10 wt % hydrogel, MMP-9 10 nM, two weeks. As for the experimental part:
The properties of hydrogels formed from SELPs are strongly dependent on the shear applied to liquid solutions of polymer prior to gelation. SELPs solubilized in phosphate buffered saline were loaded into a 1 ml luer-lock syringe connected at the hub to another 1 ml luer-lock syringe via two 27G needles, joined by a section of 0.0155″ HPLC tubing. The SELP solution was passed through this device at maximum hand pressure for five full bidirectional cycles, at which point it was used for studies.
Hydrogels were characterized for their sensitivity to MMP degradation in the context of protein loss from the gel, changes in mechanical properties, and release of model 100 nm fluorescent nanoparticles. […] Syringes were sealed with Parafilm and allowed to gel upright overnight at 37° C. […]
Protein loss was quantified using a Modified Lowry Assay Kit, and using known SELP solutions for the standard curve instead of the supplied bovine serum albumin, as SELP contains few Lowry-reactive amino acids. The mechanical properties of SELPs were evaluated in cyclic compression at 1 Hz and 1% strain, with ˜10 grams of preloading applied for 10 minutes to eliminate stress relaxation. Stress was measured using a 2 lb load cell. Release was quantified by measuring the fluorescence of release samples with an excitation/emission of 260/515. […]

Data set [3] can be described thus: Small angle neutron scattering (SANS) of SELP hydrogels. The data set is classed as physicochemical. The conditions noted are these: 12 wt %. From the text: To gain further insight into the hydrogel pore structure, network properties were examined as a function of polymer sequence by small angle neutron scattering (SANS) techniques (FIG. 9). SANS allows the examination of microstructures in the range 1-100 nm through the analysis of elastic neutron scattering. SANS analysis was used to examine the correlation between the observed macroscopic properties of SELPs (12% wt), such as equilibrium swelling and mechanical modulus, with the underlying network structure. […] SELP hydrogels conformed closely with a modified gel model of the general form I(Q)=AQ^b+(BQ^2ε^2)^2+C, which uses a power-law fit for the high q scattering combined with the Debye-Bueche model at low to intermediate Q (above Q=0.02 Å^−1). The combined Debye-Bueche/power law model provided a nearly complete fit over the full q-range of collected data. […] The calculated correlation length (Table 3) depicts a trend in the observation that are in the order SELP-415K>SELP-815K>SELP-47K. […] The silk blocks of SELP-415K are separated by elastin blocks twice the length as −47K, and as these cross-linking blocks move further apart, the elastin-like nature of the SELP becomes more pronounced and the storage modulus decreases. SELP-815K presents an interesting case where the silk blocks are doubled in length over SELP-47K while also having a long elastin block as in SELP415K.

A short description of data set [4]: One week acute toxicity study (weight, CBC). The format is in vivo, CD-1 immunocompetent mice. How it is done:
as §1, §2
Upon completion of each study, mice were individually euthanized using 70% CO2 in oxygen, with euthanasia confirmed by lack of breathing for 10 seconds. […] Injection sites were dissected for visual observation of local inflammation. Complete blood counts (CBCs) were performed within 2 hours of blood sample collection using a CBC-DIFF (Heska, Loveland, Colo.) blood count analyzer. Following CBC, samples were centrifuged at 10,000 rpm for 2.5 minutes and rapidly frozen at −80° C. for future analysis.
Safety studies were conducted in immunocompetent mice. In order to examine the ability of SELP to reduce the acute toxicity of the HSV-Tk/GCV system, 4-6 week old female CD-1 immunocompetent mice were injected subcutaneously with the conditions listed in Table 5. Weight was monitored daily for one week and daily injections of 25 mg/kg, intraperitoneal GCV were given to some groups as indicated in Table 5.
At the conclusion of the one week study, mice were sacrificed, and blood and organs were collected for analysis. […] These assessments were performed using a complete blood count.

Sequence of MMP-9 (P14780 94-707): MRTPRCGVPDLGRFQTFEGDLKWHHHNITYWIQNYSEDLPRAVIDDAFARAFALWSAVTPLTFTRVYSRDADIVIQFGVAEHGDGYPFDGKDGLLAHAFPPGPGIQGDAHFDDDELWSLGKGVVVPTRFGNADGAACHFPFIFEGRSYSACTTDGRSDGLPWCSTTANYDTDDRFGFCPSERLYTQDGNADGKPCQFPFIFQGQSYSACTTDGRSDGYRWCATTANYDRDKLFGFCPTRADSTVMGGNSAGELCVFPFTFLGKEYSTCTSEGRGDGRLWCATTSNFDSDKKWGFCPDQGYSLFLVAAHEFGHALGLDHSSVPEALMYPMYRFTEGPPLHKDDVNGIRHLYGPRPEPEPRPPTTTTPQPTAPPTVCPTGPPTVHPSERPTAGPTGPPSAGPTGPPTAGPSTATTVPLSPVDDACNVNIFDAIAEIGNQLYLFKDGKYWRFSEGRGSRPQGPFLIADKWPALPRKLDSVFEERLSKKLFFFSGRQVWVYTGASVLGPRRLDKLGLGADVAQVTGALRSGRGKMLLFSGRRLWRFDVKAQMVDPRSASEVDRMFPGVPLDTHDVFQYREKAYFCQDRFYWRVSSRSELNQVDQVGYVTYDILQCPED

B1: SELP815K: silk-elastin-like protein polymer, longer silk units, fifteen elastin units, lysine elastin unit; monomer repeated 6 times (SEQ ID NO. 21) (protein)
chain: MDPVVLQRRDWENPGVTQLNRLAAHPPFASDPMGAGSGAGAGSGAGAGSGVGVPGVGVPGVGVPGVGVPGKGVPGVGVPGVGVPGVGVPGVGVPGVGVPGVGVPGVGVPGVGVPGVGVPGVGVPGVGVPGAGAGSGAGAGSGAGAGSGAGAGSGAGAGSGAGAGAGSGAGAGSGAGAGSGVGVPGVGVPGVGVPGVGVPGKGVPGVGVPGVGVPGVGVPGVGVPGVGVPGVGVPGVGVPGVGVPGVGVPGVGVPGVGVPGAGAGSGAGAGSGAGAGSGAGAGSGAGAGSGAGAGAGSGAGAGSGAGAGSGVGVPGVGVPGVGVPGVGVPGKGVPGVGVPGVGVPGVGVPGVGVPGVGVPGVGVPGVGVPGVGVPGVGVPGVGVPGVGVPGAGAGSGAGAGSGAGAGSGAGAGSGAGAGSGAGAGAGSGAGAGSGAGAGSGVGVPGVGVPGVGVPGVGVPGKGVPGVGVPGVGVPGVGVPGVGVPGVGVPGVGVPGVGVPGVGVPGVGVPGVGVPGVGVPGAGAGSGAGAGSGAGAGSGAGAGSGAGAGSGAGAGAGSGAGAGSGAGAGSGVGVPGVGVPGVGVPGVGVPGKGVPGVGVPGVGVPGVGVPGVGVPGVGVPGVGVPGVGVPGVGVPGVGVPGVGVPGVGVPGAGAGSGAGAGSGAGAGSGAGAGSGAGAGSGAGAGAGSGAGAGSGAGAGSGVGVPGVGVPGVGVPGVGVPGKGVPGVGVPGVGVPGVGVPGVGVPGVGVPGVGVPGVGVPGVGVPGVGVPGVGVPGVGVPGAGAGSGAGAGSGAGAGSGAGAGSGAGAGSGAGAMDPGRYQDLRSHHHHHH
modifications: monomer repeated 6 times; Hybrid of Homo sapein and Bombyx mori
B1: the “toxicity conclusion of the statistical comparison” value in data set [1] (12 week study, comparison named in the table line) is given as “SELP itself is not toxic in”. In addition, the “p (ANOVA and Bonferroni post-test) Vs Control” value in data set [1] (12 week subchronic toxicity study) is given as “p > .05”. Moreover, in data set [2], the “higher protein loss compared to control” value is reported as “statistically insignificant”. In addition, in data set [3], the “Debye-Bueche mid-Q slope” value is on record as around −3 and the “Power-law low Q slope” value is listed as 3.26. Also, in data set [4], the GRA was 1.125 ± 0.39, the LYM is listed as 4.475 ± 0.87, the MON is given as 0.7 ± 0.27 and the WBC was determined as 6.3 ± 0.79.
